# Experimental data from article PMC10514931.
# B1: TWIST1: OSMI-1 (protein)
# parent chain: MMQDVSSSPVSPADDSLSNSEEEPDRQQPPSGKRGGRKRRSSRRSAGGGAGPGGAAGGGVGGGDEPGSPAQGKRGKKSAGCGGGGGAGGGGGSSSGGGSPQSYEELQTQRVMANVRERQRTQSLNEAFAALRKIIPTLPSDKLSKIQTLKLAARYIDFLYQVLQSDELDSKMASCSYVAHERLSYAFSVWRMEGAWSMSASH
# B2: TWIST1: S31A (protein)
# parent chain: MMQDVSSSPVSPADDSLSNSEEEPDRQQPPSGKRGGRKRRSSRRSAGGGAGPGGAAGGGVGGGDEPGSPAQGKRGKKSAGCGGGGGAGGGGGSSSGGGSPQSYEELQTQRVMANVRERQRTQSLNEAFAALRKIIPTLPSDKLSKIQTLKLAARYIDFLYQVLQSDELDSKMASCSYVAHERLSYAFSVWRMEGAWSMSASH
# Key:
# [1] = Western blot, KG1a-TWIST1 and SKM1; conditions: glycan lost; control: untreated cells
# [2] = CHX chase, TWIST1 stability, KG1a-TWIST1 and SKM1; conditions: glycan lost; control: untreated cells
# [3] = IP / ubiquitin blot, KG1a-TWIST1 and SKM1; conditions: glycan lost; control: non-treated cells
# [4] = IP / ubiquitin blot, HEK-293T; conditions: glycan lost; control: WT flag-TWIST1
# [5] = Western blot, HEK-293T; conditions: glycan lost; control: WT flag-TWIST1
# [6] = CHX chase, TWIST1 stability, HEK-293T; conditions: glycan lost; control: WT flag-TWIST1
Protein,expression_or_secretion [1],degradation_or_half_life [2],other: ubiquitination [3],other: ubiquitination [4],expression_or_secretion [5],degradation_or_half_life [6]
B1,decreases,decreases,increases,,,
B2,,,,increases,decreases,decreases
